Tests used:
[1] = molecular target: T1, Truncated PaMprF construct of residues 1 to 545 (TM region) (Pseudomonas aeruginosa PAO1); assay: pull-down; truncated PaMprF construct of residues 1 to 545 with sybodies; who was held is not told
T1 construct: MprF of Pseudomonas aeruginosa (PAO1), residues 1 to 545, representing the transmembrane region; also called truncated form of PaMprF representing the TM region
T1 chain: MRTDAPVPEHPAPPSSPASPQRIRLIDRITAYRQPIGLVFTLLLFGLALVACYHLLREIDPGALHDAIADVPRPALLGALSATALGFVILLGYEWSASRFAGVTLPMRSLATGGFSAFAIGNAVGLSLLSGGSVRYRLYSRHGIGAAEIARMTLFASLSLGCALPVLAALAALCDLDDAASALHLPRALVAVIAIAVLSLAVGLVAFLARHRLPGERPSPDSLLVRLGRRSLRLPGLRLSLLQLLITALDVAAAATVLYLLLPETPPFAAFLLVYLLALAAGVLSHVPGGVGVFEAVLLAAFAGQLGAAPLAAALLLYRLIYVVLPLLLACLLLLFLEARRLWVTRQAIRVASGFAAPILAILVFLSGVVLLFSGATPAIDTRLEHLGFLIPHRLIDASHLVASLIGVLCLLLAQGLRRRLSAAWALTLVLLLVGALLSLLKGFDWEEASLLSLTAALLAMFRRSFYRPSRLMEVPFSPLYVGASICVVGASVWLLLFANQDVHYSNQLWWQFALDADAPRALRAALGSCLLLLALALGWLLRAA

[2] = molecular target: T2, Multiple peptide resistance factor (MprF) from Pseudomonas aeruginosa, full length (Pseudomonas aeruginosa PAO1); assay: cryo-EM structure; PaMprF in SaposinA-lipid nanoparticles (POPC:POPG 7:3 mol/mol), separated by SEC, mixed with a 1.2x molar excess of Sb29; details: both partners purified
T2 construct: MprF of Pseudomonas aeruginosa, gene cloned from PAO1 genomic DNA into p7XC3H; full length, monomer of 96 kDa; The monomeric SEC fraction was pooled for downstream experiments; also called PaMprF; WT PaMprF; source: E. coli C41, purified (Ni Sepharose, SEC); reconstituted into SaposinA-lipid nanoparticles for cryo-EM
T2 chain: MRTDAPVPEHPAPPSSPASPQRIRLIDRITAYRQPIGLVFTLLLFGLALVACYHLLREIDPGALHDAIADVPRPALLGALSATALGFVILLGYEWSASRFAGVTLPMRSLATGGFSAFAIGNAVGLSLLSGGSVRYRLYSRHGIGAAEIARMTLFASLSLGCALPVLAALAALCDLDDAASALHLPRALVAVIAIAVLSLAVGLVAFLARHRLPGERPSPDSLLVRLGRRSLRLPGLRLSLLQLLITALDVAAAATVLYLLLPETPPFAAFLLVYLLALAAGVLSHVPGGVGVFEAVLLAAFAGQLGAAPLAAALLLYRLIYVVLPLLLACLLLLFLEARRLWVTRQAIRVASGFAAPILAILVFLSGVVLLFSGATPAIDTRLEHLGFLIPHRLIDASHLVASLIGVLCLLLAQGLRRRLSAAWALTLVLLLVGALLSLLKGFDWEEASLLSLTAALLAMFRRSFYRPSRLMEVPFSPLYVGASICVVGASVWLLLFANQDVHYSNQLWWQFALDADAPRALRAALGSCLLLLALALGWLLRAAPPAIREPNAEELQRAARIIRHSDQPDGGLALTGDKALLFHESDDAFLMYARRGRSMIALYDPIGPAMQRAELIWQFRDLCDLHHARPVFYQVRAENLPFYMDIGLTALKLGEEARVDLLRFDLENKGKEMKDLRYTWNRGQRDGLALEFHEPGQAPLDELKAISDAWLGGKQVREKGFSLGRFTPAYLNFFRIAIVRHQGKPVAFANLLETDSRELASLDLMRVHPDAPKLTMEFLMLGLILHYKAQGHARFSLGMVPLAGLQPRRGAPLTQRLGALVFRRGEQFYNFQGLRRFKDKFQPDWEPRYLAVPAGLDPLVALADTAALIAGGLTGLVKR

B1: Sybody 29 (synthetic nanobody against PaMprF) (VHH)
VHH: GVQLVESGGGLVQAGGSLRLSCAASGFPVSSAWMAWYRQAPGKEREWVAAIFSAGQKTRYADSVKGRFTISRDNAKNTVYLQMNSLKPEDTAVYYCNVKDTGHWWDIYDYWGQGTQVTVSA
notes: synthetic nanobody from the loop sybody sublibrary; the structure of its complex with PaMprF was deposited as PDB 9GOE; Selected by one round of ribosome display and two rounds of phage display against biotinylated full-length PaMprF; also called Sb29
B1: binds [1]; binds [2].

Reference: PMC11980842, “MprF from Pseudomonas aeruginosa is a promiscuous lipid scramblase with broad substrate specificity” (Science Advances, 2025)
